The target of test [1] is K8(1-124)/intact K18 heterotypic complex (human) (UniProt P05787). Put plainly: SPR (BIAcore), complex immobilized, COU-1 injected.
Test [2] concerns the target K8(1-124)/K18(1-124) heterotypic complex (human) (UniProt P05787). The experiment in a line: SPR (BIAcore), complex immobilized, COU-1 injected. (In general: SPR reads the build-up and loss of mass on a sensor chip optically.)
In test [3] the target is lysate of the colon cancer cell line colon 137 (COU-1 antigen positive). Put plainly: ELISA on coated colon 137 lysate. On the technique in general: In an ELISA, binding on a coated surface is turned into a signal by an enzyme label.

B1: human monoclonal IgM antibody COU-1 (antibody, V domains shown)
VH: GAEVKKPGASVKVSCKASDYTFSSYYMHWVRQAPGQGLEWMGIINPSGGSTSYAQKFQGRVTMTRDTSTNTVYMELSSLRSEDTAVYYCARDQVVVAATLSNYGMDVWGQGTTVTVSS
VL: ELTQSPGTLSLSPGERATLSCRASQSVSSSYLAWYQQKPGQAPRLLIYDASNRATGIPARFSGSGSGTDFTLTISSLEPEDFAVYYCQQGTNWGIAFGQGTRLDIKR
In test [1], B1 yielded a Ka of 1.4e+09 M⁻¹, a Kd of 0.71 nM, a koff of 0.00012 s⁻¹ and an on-rate constant (kon) of 170000 M⁻¹ s⁻¹. For the same molecule, in test [2], the Ka is 9.5e+08 M⁻¹, the Kd was 1.05 nM, the koff worked out at 0.0003 s⁻¹ and the on-rate (kon) turned out to be 280000 M⁻¹ s⁻¹. In test [3], the concentration needed for saturation was 1 µg/mL.

B2: recombinant B9165 Fab (Fab, V domains shown)
VH: GAEVKKPGASVKVSCKASDYTFSSYYMHWVRQAPGQGLEWMGIINPSGGSTSYAQKFQGRVTMTRDTSTNTVYMELSSLRSEDTAVYYCARDQVVVAATLSNYGMDVWGQGTTVTVSS
VL: ELTQSPGTLSLSPGERATLSCRASQSVSSSYLAWYQQKPGQAPRLLIYDASNRATGIPARFSGSGSGTDFTLTISSLEPEDFAVYYCQQGTNWGIAFGQGTRLDIKR
In test [3], B2 registered a concentration needed for saturation of 20 µg/mL.

What is called Kd is the equilibrium constant for the complex coming apart. Usually koff stands for the first-order rate constant of dissociation. A low value points to a long-lived complex. A word on the kon: it is the second-order rate constant of association.

(Values after US20050048070A1.)
